Reference: PMC12447578, “Syndecan-4 interacts directly with β-parvin and regulates the ILK-PINCH-β-parvin complex, the β-parvin-β-PIX-Rac1 axis, and cardiomyocyte geometry in a sex-dependent manner” (Frontiers in Cell and Developmental Biology, 2025)

Experiments:
[1] = target: Biotin-ahx-SDC4cyt (human, rat and mouse (identical)); assay: SPR; Biacore X100; biotin-ahx-SDC4cyt immobilised on SA chip at 100-200 RU; parvin as analyte 26.5-277.7 nM in Hepes pH 7.4, 150 mM NaCl, 3 mM EDTA, 0.005% Surfactant P20; 30 µL/min, 180 s association, 600 s dissociation; 1:1 Langmuir model
Biotin-ahx-SDC4cyt (human, rat and mouse (identical)), sequence (P31431 171-198): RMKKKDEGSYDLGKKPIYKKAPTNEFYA

[2] = tested on: FL β-parvin 20′mer overlapping peptides; assay: Peptide overlay: 20-mer β-parvin peptides overlaid with recombinant ILK (S343D); assay type: binding, rat; conditions: peptide array, O/N, 4°C, ILK antibodies, n = 4 membranes
Excerpt: Full-length (FL) recombinant human C-Myc/DDK-β-parvin was obtained from OriGene (TP308490, Rockville, MD, United States). Recombinant rat 8xHIS-β-parvin (85% purity), rat 8xHIS-α-parvin (85% purity), and mouse 8xHIS-ILK (S343D) (75% purity) were custom-made by GenScript.
The cytoplasmic tail of syndecan-4 (mouse) or FL β-parvin (rat) protein was synthesized as 20′mer overlapping peptides with 3 amino acids offset onto a cellulose membrane by a Multipep automated peptide synthesizer (CEM Corporation, Matthews, NC, United States) ([Frank and Overwin, 1996]). After membrane blocking, antibodies, or a solution with recombinant protein or biotin-ahx-SDC4 were added and incubated O/N at 4°C. Membranes were developed as described for immunoblotting.

Kd [1] [nM]	koff [1] [s⁻¹]	kon [1] [M⁻¹ s⁻¹]	Molecule	ILK binding site in β-parvin (CH2 domain) [2]
11.1	8.6e-05	10000	Recombinant rat 8xHIS-β-parvin (natural protein)	–
–	–	–	ILK (S343D): Recombinant mouse 8xHIS-ILK (S343D), custom-made by GenScript (protein, left off: 8xHIS, end not stated, state not stated, Recombinant mouse 8xHIS-ILK (S343D), custom-made by GenScript) MDDIFTQCREGNAVAVRLWLDNTENDLNQGDDHGFSPLHWACREGRSAVVEMLIMRGARINVMNRGDDTPLHLAASHGHRDIVQKLLQYKADINAVNEHGNVPLHYACFWGQDQVAEDLVANGALVSICNKYGEMPVDKAKAPLRELLRERAEKMGQNLNRIPYKDTFWKGTTRTRPRNGTLNKHSGIDFKQLNFLAKLNENHSGELWKGRWQGNDIVVKVLKVRDWSTRKSRDFNEECPRLRIFSHPNVLPVLGACQAPPAPHPTLITHWMPYGSLYNVLHEGTNFVVDQSQAVKFALDMARGMAFLHTLEPLIPRHALNSRSVMIDEDMTARISMADVKFDFQCPGRMYAPAWVAPEALQKKPEDTNRRSADMWSFAVLLWELVTREVPFADLSNMEIGMKVALEGLRPTIPPGISPHVCKLMKICMNEDPAKRPKFDMIVPILEKMQDK	bound a few amino acids upstream of the syndecan-4 core binding site
